Reference: US20110289632

Biological target: 3-ketomyristoyl-ACP (enzymatically prepared from ShACP)

B1: ShMKS1 (methylketone synthase 1 from Solanum habrochaites f glabratum), recombinant, His-tagged (protein)
chain: MEKSMSPFVKKHFVLVHTAFHGAWCWYKIVALMRSSGHNVTALDLGASGINPKQALQIPNFSDYLSPLMEFMASLPANEKIILVGHALGGLAISKAMETFPEKISVAVFLSGLMPGPNIDATTVCTKAGSAVLGQLDNCVTYENGPTNPPTTLIAGPKFLATNVYHLSPIEDLALATALVRPLYLYLAEDISKEVVLSSKRYGSVKRVFIVATENDALKKEFLKLMIEKNPPDEVKEIEGSDHVTMMSKPQQLFTTLLSIANKYK
amount of 2-tridecanone formed (in vitro thioesterase activity assay, direct hexane extraction, GC-MS): slightly higher, but not significantly so (t test, p=0.062, α=0.05), than the amount found in the buffer-incubated sample treated with acid and heat
